From patent US20180194839A1 come the findings set out here.

Test [1] has as its target BSA (UniProt P02769). As to the kind of experiment: ELISA, BSA wells, control Ab 1 µg/ml (control antibody not identified).
The target in test [2] is BSA (UniProt P02769). As to the kind of experiment: ELISA, BSA wells, control Ab 5 µg/ml (control antibody not identified).
Test [3] addresses recombinant human IL-17A (SEQ ID NO: 76) (human) (UniProt Q16552). Description: cell-based or functional assay.
Test [4] concerns the target recombinant human IL-17A/F heterodimer (human) (UniProt Q16552). Description: cell-based or functional assay.
For test [5], the target named is recombinant human IL-17F (SEQ ID NO: 77) (human) (UniProt Q96PD4). Description: cell-based or functional assay.
The target in test [6] is recombinant mouse IL-17A (SEQ ID NO: 83) (mouse) (UniProt Q62386). As to the kind of experiment: cell-based or functional assay.
For test [7], the target named is recombinant mouse IL-17A/F (R&D Systems Cat#5390-IL) (mouse) (UniProt Q62386). Description: cell-based or functional assay.
Test [8] addresses recombinant mouse IL-17F (SEQ ID NO: 84) (mouse) (UniProt Q7TNI7). As to the kind of experiment: cell-based or functional assay.
The target in test [9] is recombinant rat IL-17A (SEQ ID NO: 85) (rat) (UniProt Q61453). Description: cell-based or functional assay.
recombinant rat IL-17A (SEQ ID NO: 85) (rat), sequence (Q61453 other isoform, or with tags, fused parts or gaps limits assumed): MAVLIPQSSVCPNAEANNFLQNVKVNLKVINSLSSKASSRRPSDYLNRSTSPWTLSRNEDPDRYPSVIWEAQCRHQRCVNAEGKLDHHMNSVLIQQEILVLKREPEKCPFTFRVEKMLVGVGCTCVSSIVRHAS

recombinant human IL-17A/F heterodimer (human), sequence (Q16552 24-155 limits assumed, chain 1 of 2): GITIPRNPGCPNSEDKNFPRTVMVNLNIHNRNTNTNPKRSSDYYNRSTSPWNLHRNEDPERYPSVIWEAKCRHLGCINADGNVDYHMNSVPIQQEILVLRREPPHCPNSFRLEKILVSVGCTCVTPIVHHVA
recombinant human IL-17A/F heterodimer (human), sequence (Q96PD4 31-163 limits assumed, chain 2 of 2, further chain): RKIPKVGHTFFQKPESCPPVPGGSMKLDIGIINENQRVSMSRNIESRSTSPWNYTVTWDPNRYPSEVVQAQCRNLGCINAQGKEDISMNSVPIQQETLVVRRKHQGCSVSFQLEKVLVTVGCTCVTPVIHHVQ
recombinant human IL-17F (SEQ ID NO: 77) (human), sequence (Q96PD4 other isoform, or with tags, fused parts or gaps limits assumed): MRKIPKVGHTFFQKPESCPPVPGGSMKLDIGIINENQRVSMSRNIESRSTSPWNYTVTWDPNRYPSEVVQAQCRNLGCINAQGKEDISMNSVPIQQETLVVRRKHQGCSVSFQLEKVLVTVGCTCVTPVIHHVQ
recombinant human IL-17A (SEQ ID NO: 76) (human), sequence (Q16552 other isoform, or with tags, fused parts or gaps limits assumed): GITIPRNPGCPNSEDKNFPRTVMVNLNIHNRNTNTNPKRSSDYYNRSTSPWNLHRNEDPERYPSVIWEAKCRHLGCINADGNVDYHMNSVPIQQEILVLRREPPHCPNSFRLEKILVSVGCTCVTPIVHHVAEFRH
BSA, sequence (P02769 25-607 limits assumed): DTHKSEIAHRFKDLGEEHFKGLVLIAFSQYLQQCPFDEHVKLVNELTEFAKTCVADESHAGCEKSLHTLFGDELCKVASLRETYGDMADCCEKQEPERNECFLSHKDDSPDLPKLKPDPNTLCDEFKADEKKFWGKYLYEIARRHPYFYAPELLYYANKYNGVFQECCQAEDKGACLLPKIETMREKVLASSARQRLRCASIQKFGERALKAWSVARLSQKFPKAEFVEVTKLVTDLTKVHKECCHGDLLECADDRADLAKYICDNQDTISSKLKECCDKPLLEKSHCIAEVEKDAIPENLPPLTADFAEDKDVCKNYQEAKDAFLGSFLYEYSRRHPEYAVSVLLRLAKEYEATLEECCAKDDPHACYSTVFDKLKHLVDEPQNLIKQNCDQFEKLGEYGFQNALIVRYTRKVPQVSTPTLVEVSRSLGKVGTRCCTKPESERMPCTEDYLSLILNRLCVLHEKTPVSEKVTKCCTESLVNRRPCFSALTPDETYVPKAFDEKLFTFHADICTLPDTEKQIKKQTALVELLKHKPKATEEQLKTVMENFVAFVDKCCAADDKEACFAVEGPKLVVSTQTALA
recombinant mouse IL-17A/F (R&D Systems Cat#5390-IL) (mouse), sequence (Q62386 26-158 limits assumed, chain 1 of 2): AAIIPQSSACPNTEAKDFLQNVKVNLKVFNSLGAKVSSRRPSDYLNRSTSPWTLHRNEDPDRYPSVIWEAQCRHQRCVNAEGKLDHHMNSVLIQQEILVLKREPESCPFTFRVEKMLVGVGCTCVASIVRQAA
recombinant mouse IL-17A/F (R&D Systems Cat#5390-IL) (mouse), sequence (Q7TNI7 29-161 limits assumed, chain 2 of 2, further chain): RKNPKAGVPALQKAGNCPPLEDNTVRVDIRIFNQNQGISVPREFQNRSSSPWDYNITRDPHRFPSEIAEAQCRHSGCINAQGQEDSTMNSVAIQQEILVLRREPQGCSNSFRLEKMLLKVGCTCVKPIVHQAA
recombinant mouse IL-17F (SEQ ID NO: 84) (mouse), sequence (Q7TNI7 other isoform, or with tags, fused parts or gaps limits assumed): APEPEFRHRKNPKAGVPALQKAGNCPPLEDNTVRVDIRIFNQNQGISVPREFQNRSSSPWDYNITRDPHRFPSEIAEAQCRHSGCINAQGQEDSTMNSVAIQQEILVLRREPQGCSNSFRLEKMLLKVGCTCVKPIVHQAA
recombinant mouse IL-17A (SEQ ID NO: 83) (mouse), sequence (Q62386 other isoform, or with tags, fused parts or gaps limits assumed): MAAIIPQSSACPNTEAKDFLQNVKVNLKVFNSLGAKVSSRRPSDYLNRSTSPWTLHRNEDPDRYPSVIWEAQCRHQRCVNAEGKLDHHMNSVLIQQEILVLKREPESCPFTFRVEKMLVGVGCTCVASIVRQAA

Take “Control antibody (not identified for this antigen)”: the O.D. with BSA [1] was found to be 0.149 O.D; in the test with BSA [2], 0.01 O.D.

Turning to Simulect® (antibody), in test [3], the IC50, hu-GRO-alpha secretion by BJ cells; stimulus IL-17A (30 pM) + TNF-α (6 pM) was greater than 3000 nM; the IC50, hu-GRO-alpha secretion by BJ cells; stimulus IL-17A (1 nM) was greater than 100 nM; the IC50, huIL-6 secretion by BJ cells; stimulus rhuIL-17A (30 pM) + rhuTNF-α (6 pM) is greater than 3000 nM; the IC50, huIL-6 secretion by BJ cells; stimulus rhuIL-17A (1 nM) is greater than 100 nM. Moreover, in test [4], the IC50, hu-GRO-alpha secretion by BJ cells; stimulus IL-17A/F (300 pM) + TNF-α (6 pM) was greater than 3000 nM; the IC50, hu-GRO-alpha secretion by BJ cells; stimulus IL-17A/F (3 nM) was greater than 100 nM; the IC50, huIL-6 secretion by BJ cells; stimulus rhuIL-17A/F (300 pM) + rhuTNF-α (6 pM) was greater than 3000 nM; the IC50, huIL-6 secretion by BJ cells; stimulus rhuIL-17A/F (3 nM) is greater than 100 nM. In [5], the IC50, hu-GRO-alpha secretion by BJ cells; stimulus IL-17F (10 nM) + TNF-α (6 pM) was greater than 3000 nM; the IC50, hu-GRO-alpha secretion by BJ cells; stimulus IL-17F (30 nM) is greater than 1000 nM; the IC50, huIL-6 secretion by BJ cells; stimulus rhuIL-17F (10 nM) + rhuTNF-α (6 pM) was greater than 3000 nM; the IC50, huIL-6 secretion by BJ cells; stimulus rhuIL-17F (30 nM) was greater than 1000 nM. The IC50, mouse KC secretion by CMT-93 cells; stimulus mIL-17A (1 nM) in test [6] is greater than 3000 nM. Further, the IC50, mouse KC secretion by CMT-93 cells; stimulus mIL-17A/F (3 nM) in [7] is greater than 3000 nM. In addition, in test [8], the IC50, mouse KC secretion by CMT-93 cells; stimulus mIL-17F (30 nM) is greater than 3000 nM. Besides, the IC50, mouse KC secretion by CMT-93 cells; stimulus rIL-17A (1 nM) in test [9] is greater than 3000 nM.
